Test results as given in US20020062008A1 (ICOS, published 2002).

T1: soluble ICAM-R/IgG1 fusion protein (UniProt P32942 30-485, limits assumed)
T1 construct: not shown: IgG1 portion
T1 sequence (looked up): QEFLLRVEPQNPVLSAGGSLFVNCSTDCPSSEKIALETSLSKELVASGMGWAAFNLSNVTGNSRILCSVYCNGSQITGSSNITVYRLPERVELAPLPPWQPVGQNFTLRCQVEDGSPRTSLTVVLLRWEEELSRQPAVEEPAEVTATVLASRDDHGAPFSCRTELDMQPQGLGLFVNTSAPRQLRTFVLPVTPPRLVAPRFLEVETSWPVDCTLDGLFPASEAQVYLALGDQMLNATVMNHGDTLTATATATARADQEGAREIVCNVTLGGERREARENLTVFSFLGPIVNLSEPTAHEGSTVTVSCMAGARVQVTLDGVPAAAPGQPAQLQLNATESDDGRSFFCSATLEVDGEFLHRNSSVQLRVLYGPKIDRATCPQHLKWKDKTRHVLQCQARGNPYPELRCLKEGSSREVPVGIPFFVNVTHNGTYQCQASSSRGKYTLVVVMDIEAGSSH

B1: soluble ICAM-1/IgG1 fusion protein (Fc fusion, UniProt P05362 28-480, looked up)
chain: QTSVSPSKVILPRGGSVLVTCSTSCDQPKLLGIETPLPKKELLLPGNNRKVYELSNVQEDSQPMCYSNCPDGQSTAKTFLTVYWTPERVELAPLPSWQPVGKNLTLRCQVEGGAPRANLTVVLLRGEKELKREPAVGEPAEVTTTVLVRRDHHGANFSCRTELDLRPQGLELFENTSAPYQLQTFVLPATPPQLVSPRVLEVDTQGTVVCSLDGLFPVSEAQVHLALGDQRLNPTVTYGNDSFSAKASVSVTAEDEGTQRLTCAVILGNQSQETLQTVTIYSFPAPNVILTKPEVSEGTEVTVKCEAHPRAKVTLNGVPAQPLGPRAQLLLKATPEDNGRSFSCSATLEVAGQLIHKNQTRELRVLYGPRLDERDCPGNWTWPENSQQTPMCQAWGNPLPELKCLKDGTFPLPIGESVTVTRDLEGTYLCRARSTQGEVTRKVTVNVLSPRYE
notes: not shown: IgG1 portion (detected with anti-human IgG1)
B2: CD11a I domain/IgG chimeric protein (Fc fusion, UniProt P20701 153-332, looked up)
chain: GNVDLVFLFDGSMSLQPDEFQKILDFMKDVMKKLSNTSYQFAAVQFSTSYKTEFDFSDYVKRKDPDALLKHVKHMLLLTNTFGAINYVATEVFREELGARPDATKVLIIITDGEATDSGNIDAAKDIIRYIIGIGKHFQTKESQETLHKFASKPASEFVKILDTFEKLKDLFTELQKKIY
notes: domain: I domain; Negative control; also called CD11a/IgG4 protein; not shown: IgG4 portion
B3: VCAM-1 domains 1 and 2 fused to human immunoglobulin Fc (Fc fusion, UniProt P19320 25-220, looked up, not shown: a dimerising Fc or GST)
chain: FKIETTPESRYLAQIGDSVSLTCSTTGCESPFFSWRTQIDSPLNGKVTNEGTTSTLTMNPVSFGNEHSYLCTATCESRKLEKGIQVEIYSFPKDPEIHLSGPLEAGKPITVKCSVADVYPFDRLEIDLLKGDHLMKSQEFLEDADRKSLETKSLEVTFTPVIEDIGKVLVCRAKLHIDEMDSVPTVRQAVKELQVY
notes: domain: domains 1 and 2; also called two domain form of VCAM-1
B4: soluble VCAM-1/IgG1 fusion protein (seven extracellular immunoglobulin-like domains) (Fc fusion, UniProt P19320 25-698, looked up)
chain: FKIETTPESRYLAQIGDSVSLTCSTTGCESPFFSWRTQIDSPLNGKVTNEGTTSTLTMNPVSFGNEHSYLCTATCESRKLEKGIQVEIYSFPKDPEIHLSGPLEAGKPITVKCSVADVYPFDRLEIDLLKGDHLMKSQEFLEDADRKSLETKSLEVTFTPVIEDIGKVLVCRAKLHIDEMDSVPTVRQAVKELQVYISPKNTVISVNPSTKLQEGGSVTMTCSSEGLPAPEIFWSKKLDNGNLQHLSGNATLTLIAMRMEDSGIYVCEGVNLIGKNRKEVELIVQEKPFTVEISPGPRIAAQIGDSVMLTCSVMGCESPSFSWRTQIDSPLSGKVRSEGTNSTLTLSPVSFENEHSYLCTVTCGHKKLEKGIQVELYSFPRDPEIEMSGGLVNGSSVTVSCKVPSVYPLDRLEIELLKGETILENIEFLEDTDMKSLENKSLEMTFIPTIEDTGKALVCQAKLHIDDMEFEPKQRQSTQTLYVNVAPRDTTVLVSPSSILEEGSSVNMTCLSQGFPAPKILWSRQLPNGELQPLSENATLTLISTKMEDSGVYLCEGINQAGRSRKEVELIIQVTPKDIKLTAFPSESVKEGDTVIISCTCGNVPETWIILKKKAETGDTVLKSIDGAYTIRKAQLKDAGVYECESKNKVGSQLRSLTLDVQGRENNKDYFSPE
notes: domain: seven extracellular immunoglobulin-like domains; not shown: IgG1 portion
B5: E-selectin, immobilized recombinant (ligand, UniProt P16581 22-556, looked up)
chain: WSYNTSTEAMTYDEASAYCQQRYTHLVAIQNKEEIEYLNSILSYSPSYYWIGIRKVNNVWVWVGTQKPLTEEAKNWAPGEPNNRQKDEDCVEIYIKREKDVGMWNDERCSKKKLALCYTAACTNTSCSGHGECVETINNYTCKCDPGFSGLKCEQIVNCTALESPEHGSLVCSHPLGNFSYNSSCSISCDRGYLPSSMETMQCMSSGEWSAPIPACNVVECDAVTNPANGFVECFQNPGSFPWNTTCTFDCEEGFELMGAQSLQCTSSGNWDNEKPTCKAVTCRAVRQPQNGSVRCSHSPAGEFTFKSSCNFTCEEGFMLQGPAQVECTTQGQWTQQIPVCEAFQCTALSNPERGYMNCLPSASGSFRYGSSCEFSCEQGFVLKGSKRLQCGPTGEWDNEKPTCEAVRCDAVHQPPKGLVRCAHSPIGEFTYKSSCAFSCEEGFELHGSTQLECTSQGQWTEEVPSCQVVKCSSLAVPGKINMSCSGEPVFGTVCKFACPEGWTLNGSAARTCGATGHWSGLLPTCEAPTESNIP
notes: also called E-selection
B6: human αd I domain/IgG4 fusion protein (Fc fusion)
chain: IVFLIDGSGSIDQNDFNQMKGFVQAVMGQFEGTDTLFALMQYSNLLKIHFTFTQFRTSPSQQSLVDPIVQLKGLTFTATGILTVVTQLFHHKNGARKSAKKILIVITDGQKYKDPLEYSDVIPQAEKAGIIRYAIGVGHAFQGPTARQELNTISSAPPQDHVFKVDNFAALGSIQKQLQEKIYAVEGTQSRASSSFQHEMSQE
notes: Residue limits approximate; also called Iαd/IgG4; I domain chimera; not shown: human IgG4 portion

Experiments:
[1] = target: T2, human αd/CD18 heterodimer expressed on transfected cells (COS, CHO, JY) (human, UniProt P05107 23-769); test: adhesion of CHO transfectants to immobilized CAM, crystal violet
T2 construct: whole, on cells; also used as detergent lysate in immunoprecipitations; also called αd/CD18 CHO transfected cells; αd/CD18 co-transfectants
Method: (§1) The ability of CHO cells expressing either α₄β₁ or αdβ₂ to bind a five domain VCAM-1/Ig fusion protein or ICAM-1/Ig fusion protein was tested as follows. CAMs were immobilized on 96 well microtiter plates at 0.5 μg/well in bicarbonate buffer (pH 9.5). Plates were blocked with 1% fish gelatin and treated with either buffer, irrelevant antibody or a blocking VCAM-1 antibody. […] Cells were washed before addition to the CAM-coated wells at a density of 100,000 cells per well. Cells were incubated in the presence of the immobilized […] for twenty minutes before addition of 5% glutaraldehyde. Following fixation, plates were washed with distilled water and cells were stained with 1% crystal violet, After destaining with 66% ethanol for several hours, absorbance at 570 nm was measured on a Dynatech plate reader.

[2] = target: T3, α4β1 expressed on CHO cells (UniProt P13612 34-1032; P05556 21-798, limits assumed); test: as above
T3 construct: whole, on cells; also called α4 transformed CHO cells; α4 transfected line
Method: as §1

[3] = target: T4, LFA-1 leucine zipper fusion protein (soluble CD11a/CD18) (UniProt P20701 26-1090; P05107 23-700); test: ELISA, CAM/Ig on captured soluble CD11a/CD18
T4 construct: also called LFA-1LZ; captured CD11a/CD18
Method: (§2) The same protocol was used to immobilize the anti-CD11a antibody TS2/4.1 for immobilization of a LFA-1 leucine zipper (LFA-1LZ) fusion protein; LFA-1 was used as a negative control for VCAM-1 binding and a positive control for ICAM-1 binding. The plates were blocked with 300 μl/well 3% bovine serum albumin for one hour and washed in D-PBS. Tissue culture supernatants from stable CHO transfectants expressing either αd/CD18LZ or LFA-1LZ were added at 100 μl/well and allowed to incubate for 6 to 8 hours at 4° C. The plates were washed twice with Tris-buffered saline with Tween® 20 (TBS-T), followed by one wash with TBS (no Tween®) containing 2 mM each calcium chloride, magnesium chloride, and manganese chloride. The latter served as assay and wash buffer during the remainder of the assay.
(§3) After integrin capture, the plates were washed three times with 250 μl/well TBS. Purified CAM/Ig (see Example 12) was added to each well following serial 2:3 dilutions starting at a concentration of 10 to 20 μg/ml. CAM/Igs were allowed to bind for two hours at room temperature before plates were washed as above. Bound fusion protein was detected with horseradish peroxidase-conjugated goat anti-human Ig antibody (Jackson Labs) followed by development with o-phenyldiamine (OPD).

[4] = target: T1, soluble ICAM-R/IgG1 fusion protein; test: ELISA, bound IgG4 detected with HP6023
[5] = target: B4; test: ELISA, bound IgG4 detected with HP6023
[6] = target: T2, human αd/CD18 heterodimer expressed on …; test: adhesion of CHO transfectants to immobilized CAM, crystal violet A570
Method: as §1

[7] = target: T4, LFA-1 leucine zipper fusion protein …; test: ELISA on LFA-1LZ captured with TS2/4.1
Method: as §2, §3

[8] = target: T2, human αd/CD18 heterodimer expressed on …; test: adhesion of αdβ2-transfected CHO cells to coated wells
Method: For transfected and parental CHO cells, adhesion was performed using coated plates identical to those employed for eosinophil adhesion. […] A modification of a previously described gentle washing technique [Shanley, et al., J. Immunol. 160:1014 (1998)] was therefore employed. This technique allowed non-adherent cells to be dislodged from the inverted plate with centrifugation at 1×g for 30 minutes at 20° C. Remaining adherent cells were then removed using 0.1 M EDTA (Sigma) and counted by flow cytometry. In addition to VCAM-1, E-selection (100 ng/ml) was also used to coat wells in some adhesion experiments. In addition to the blocking monoclonal antibodies used in the eosinophil studies, immobilized VCAM-1 was pretreated with an appropriate dilution of F(ab′)₂ anti-VCAM-1 monoclonal antibody prior to the addition of CHO cells.
Chinese hamster ovary cells were transfected as described in Example 11. The αdβ₂-transfected CHO cells were cultured in DMEM/F12 media with 1 mM pyruvate and 2 mM L-glutamine (Biofluids) supplemented with 10% dialyzed FBS, 100 U/ml penicillin, 100 μg/ml streptomycin, and 600 μg/ml G418 (all from Life Technologies). Media for culture of the parental CHO cell line was similar except that non-dialyzed FBS (Life Technologies) was used and 0.1 mM hypoxanthine and 16 nM thymidine (Sigma) were used in place of the G418. […]

[9] = target: B1; test: ELISA, bound IgG4 detected with HP6023
[10] = target: T5, bovine serum albumin (bovine, UniProt P02769 25-607); test: ELISA, bound IgG4 detected with HP6023
T5 construct: also called BSA
T5 sequence (P02769 25-607 limits assumed): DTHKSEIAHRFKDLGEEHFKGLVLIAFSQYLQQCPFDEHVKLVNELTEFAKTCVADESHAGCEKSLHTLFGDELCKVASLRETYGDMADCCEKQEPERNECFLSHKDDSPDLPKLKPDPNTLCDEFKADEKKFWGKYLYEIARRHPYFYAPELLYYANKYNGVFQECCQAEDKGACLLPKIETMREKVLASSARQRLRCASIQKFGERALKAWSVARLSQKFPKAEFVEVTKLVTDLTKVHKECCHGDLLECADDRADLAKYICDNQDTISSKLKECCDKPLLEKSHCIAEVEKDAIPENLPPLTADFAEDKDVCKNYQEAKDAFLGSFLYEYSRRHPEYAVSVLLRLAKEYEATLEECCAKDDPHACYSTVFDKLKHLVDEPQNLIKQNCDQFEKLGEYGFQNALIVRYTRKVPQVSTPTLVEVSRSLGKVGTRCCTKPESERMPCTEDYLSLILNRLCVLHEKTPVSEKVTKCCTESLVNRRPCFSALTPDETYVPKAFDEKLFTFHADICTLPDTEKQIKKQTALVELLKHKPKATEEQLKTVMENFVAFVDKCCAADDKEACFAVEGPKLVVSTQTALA

B1
binding result [1]: no binding (tested: 0.5 µg/well coat) | binding result [2]: no binding (tested: 0.5 µg/well coat) | fold above background [3]: ~15 fold

B2
binding result [4]: no binding | binding result [5]: no binding

B3
binding result [6]: binds

B4
binding result [7]: no binding

B5
binding result [8]: no binding (tested: 100 ng/ml coat)

B6
binding result [9]: no binding | binding result [10]: no binding
